Data set [1] concerns the target porcine thrombin (pig, UniProt Q19AZ8;Q19AZ8 316-364;365-623). Briefly: filter binding.
The target of data set [2] is beta-thrombin (UniProt P00734;P00734;P00734 328-363;364-425;437-622). Briefly: filter binding.
Data set [3] addresses T1, prothrombin (Homo sapiens, UniProt P00734 44-622). Briefly: filter binding.
Data set [4] concerns the target T1, prothrombin. Briefly: SPR. In general terms: Surface plasmon resonance follows binding to a sensor surface in real time, without labels.

This passage reports Kd results from publication PMC3636572.

B1: RNAR9D-14T (XNA)
RNA: GGCGGUCGAUCACACAGUUCAAACGUAAUAAGCCAAUGUACGAGGCAGACGACUCGCC
modifications: 2'-fluoro on all C and U; purines 2'-OH
In general, Kd refers to the free concentration of one partner at which half of the binding sites on the other are occupied at equilibrium, for simple one-to-one binding. For B1, the values for the equilibrium dissociation constant (Kd) in data set [1], in data set [2] and in data set [3] were 5 nM, 20 nM and 10 nM, respectively.

B2: biotin-RNAR9D-14T (XNA)
RNA: GGCGGUCGAUCACACAGUUCAAACGUAAUAAGCCAAUGUACGAGGCAGACGACUCGCC
modifications: 2'-fluoro on all C and U; purines 2'-OH
As for B2, the dissociation constant (Kd) in data set [4] was determined as 1.4 nM. In other words, the single-digit nanomolar range.
